Assay results published in article PMC9585074.

Biological target: human myc-tagged essential myosin light chain (ELC) (human) (UniProt P08590)
Experiment: co-IP; human myc-tagged ELC overexpressed in HEK293 cells, Myc-Trap magnetic beads, 1 mg lysate over night at 4 °C, immunoblot for endogenous kinases; basal or ionophore (ionomycin 1-5 µM, 4 mM CaCl2, 10 min) stimulation

Chain of UniProt P08590 (P08590 whole entry): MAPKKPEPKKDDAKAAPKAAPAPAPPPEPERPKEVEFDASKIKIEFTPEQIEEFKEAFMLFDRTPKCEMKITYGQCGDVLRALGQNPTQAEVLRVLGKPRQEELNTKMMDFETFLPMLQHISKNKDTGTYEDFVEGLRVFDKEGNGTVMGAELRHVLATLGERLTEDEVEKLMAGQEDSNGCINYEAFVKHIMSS

B1: NIMA-related kinase 9 (NEK9), human, endogenous in HEK293 cells (enzyme)
chain: MSVLGEYERHCDSINSDFGSESGGCGDSSPGPSASQGPRAGGGAAEQEELHYIPIRVLGRGAFGEATLYRRTEDDSLVVWKEVDLTRLSEKERRDALNEIVILALLQHDNIIAYYNHFMDNTTLLIELEYCNGGNLYDKILRQKDKLFEEEMVVWYLFQIVSAVSCIHKAGILHRDIKTLNIFLTKANLIKLGDYGLAKKLNSEYSMAETLVGTPYYMSPELCQGVKYNFKSDIWAVGCVIFELLTLKRTFDATNPLNLCVKIVQGIRAMEVDSSQYSLELIQMVHSCLDQDPEQRPTADELLDRPLLRKRRREMEEKVTLLNAPTKRPRSSTVTEAPIAVVTSRTSEVYVWGGGKSTPQKLDVIKSGCSARQVCAGNTHFAVVTVEKELYTWVNMQGGTKLHGQLGHGDKASYRQPKHVEKLQGKAIRQVSCGDDFTVCVTDEGQLYAFGSDYYGCMGVDKVAGPEVLEPMQLNFFLSNPVEQVSCGDNHVVVLTRNKEVYSWGCGEYGRLGLDSEEDYYTPQKVDVPKALIIVAVQCGCDGTFLLTQSGKVLACGLNEFNKLGLNQCMSGIINHEAYHEVPYTTSFTLAKQLSFYKIRTIAPGKTHTAAIDERGRLLTFGCNKCGQLGVGNYKKRLGINLLGGPLGGKQVIRVSCGDEFTIAATDDNHIFAWGNGGNGRLAMTPTERPHGSDICTSWPRPIFGSLHHVPDLSCRGWHTILIVEKVLNSKTIRSNSSGLSIGTVFQSSSPGGGGGGGGGEEEDSQQESETPDPSGGFRGTMEADRGMEGLISPTEAMGNSNGASSSCPGWLRKELENAEFIPMPDSPSPLSAAFSESEKDTLPYEELQGLKVASEAPLEHKPQVEASSPRLNPAVTCAGKGTPLTPPACACSSLQVEVERLQGLVLKCLAEQQKLQQENLQIFTQLQKLNKKLEGGQQVGMHSKGTQTAKEEMEMDPKPDLDSDSWCLLGTDSCRPSL
With B1 as the binder, how does the averaged intensity of precipitated NEK9 normalized to actin of input, before doubling the ionophore concentration read?
Its averaged intensity of precipitated NEK9 normalized to actin of input, before doubling the ionophore concentration is 0.35.

And the averaged intensity of precipitated NEK9 normalized to actin of input, doubled ionophore concentration?
Its averaged intensity of precipitated NEK9 normalized to actin of input, doubled ionophore concentration is 1.01.
